The source of these data is US20180037632A1 (BIONTECH, published 2018).

The target in assay [1] is T1, recombinant soluble human Seprase (rhuSeprase) (human, UniProt Q12884 29-760).
T1 construct: range 29-760; Secreted from CHO-S cells with a mouse Ig kappa secretion signal (not part of the protein in the assay); also called recombinant human Seprase; soluble fraction of human Seprase
T1 sequence: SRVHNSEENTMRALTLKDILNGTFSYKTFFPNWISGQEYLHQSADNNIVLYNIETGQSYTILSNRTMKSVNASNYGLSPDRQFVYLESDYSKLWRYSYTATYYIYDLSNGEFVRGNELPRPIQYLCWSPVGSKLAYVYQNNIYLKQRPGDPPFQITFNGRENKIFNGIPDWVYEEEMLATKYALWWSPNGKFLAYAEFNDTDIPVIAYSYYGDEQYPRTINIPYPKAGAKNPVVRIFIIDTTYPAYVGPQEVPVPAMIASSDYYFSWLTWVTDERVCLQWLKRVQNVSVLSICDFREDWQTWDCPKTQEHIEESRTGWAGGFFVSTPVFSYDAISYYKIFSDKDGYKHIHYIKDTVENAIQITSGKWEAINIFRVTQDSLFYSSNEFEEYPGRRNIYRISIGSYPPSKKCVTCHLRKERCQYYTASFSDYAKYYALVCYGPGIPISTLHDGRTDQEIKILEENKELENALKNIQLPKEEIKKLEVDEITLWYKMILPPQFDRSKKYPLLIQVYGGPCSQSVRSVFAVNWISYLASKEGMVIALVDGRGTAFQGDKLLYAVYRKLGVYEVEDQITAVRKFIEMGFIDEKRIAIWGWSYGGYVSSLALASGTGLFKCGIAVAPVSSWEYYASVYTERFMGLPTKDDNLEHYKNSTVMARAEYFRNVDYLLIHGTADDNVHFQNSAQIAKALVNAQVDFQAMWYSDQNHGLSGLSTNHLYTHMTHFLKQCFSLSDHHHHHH
The assay is described as follows: SPR (Biacore T-100), rhuSeprase immobilized on CM5, steady state analysis, 1:1 fit. The method, then: (§1) RhuSeprase (20 μg/ml in PBS, 5% mannitol, 5% trehalose) was immobilized on an amino reactive Series S Sensor Chip CM5 (GE Healthcare). For binding analysis of monomeric Microbodies rhuSeprase was loaded to a maximum of 7500 RU, for oligomeric Microbodies to a maximum of 700 RU. Monomeric Microbodies were measured using a multi cycle kinetic method in a concentration range of 3.125 to 1000 nM based on expected dissociation constant. Association step was measured over a time period of 60-90 seconds, dissociation over 420 seconds. Trimeric Mircobodies were measured using a single cycle kinetics method in a concentration range of 0.3125 to 5 nM (association for 90 seconds, dissociation 420 seconds). Binding kinetics and steady state analysis were calculated using a 1:1 binding model (Biacore T-100 Evaluation Software, GE Healthcare).
(§2) The binding kinetics of monomeric and trimeric Seprase-binding Microbodies was determined using surface plasmon resonance spectroscopy on a Biacore T-100 system.
In general terms: In SPR one partner is held on a chip, and binding of the other changes the refractive index at the surface.

The target in assay [2] is T1, recombinant soluble human Seprase …. In words: competition ELISA on coated rhuSeprase: free MC-FA-010 (0.64 to 3167 nM) against 3 nM Trx-MC-FA-010, detected with anti-S-Tag-HRP, OD 450 nm. The method, then:
(§3) For protein based ELISA analysis 5 μg of the respective recombinant protein (rhuSeprase; streptavidin: Sigma; DPP-IV: R&D Systems, BSA: Eurobio) were immobilized per well of a MaxiSorp™ plate (Nunc) by overnight incubation in coating buffer at 4° C. After washing thrice with 300 μl PBS-T/well on a Hydrospeed plate washer (Tecan) the wells were blocked with 1×Casein solution (Sigma, diluted in PBS) for 2 h at RT. Subsequently, the wells were washed as indicated above. 100 μl of the respective Trx-miniprotein fusion diluted in PBS-T was then added and incubated for 1 h at 4° C. […] For competition ELISAs a fixed concentration of 3 nM Trx-miniprotein fusion was mixed with varying concentration (0.64-3167 nM) of solitary miniprotein before incubation. Binding of the Trx-fusion was detected after a PBS-T washing procedure using HRP coupled anti S-tag antibody as described above. Apparent Kd was calculated using Sigmaplot 10 and an one site saturation binding model for fitting of the data.
Detection of bound miniprotein was achieved via anti S-Tag-HRP conjugated antibody (S-tag is provided by thioredoxin fusion expression system, FIG. 3A). EC₅₀ values were calculated using the one-site-saturation binding model in Sigma plot 10.

Assay [3] shares this target. The assay is described as follows: SPR (Biacore T100), rhuSeprase immobilised, MC-FA-010 at 37, 111,11, 333,33, 1000 and 3000 nM, global fit; Rmax 316,6 RU; Chi² 9,42 RU²; U-value 1. Here is the method: (§4) To obtain insights of the kinetic binding properties surface plasmon resonance (SPR) analysis was performed on a Biacore T100 device (GE Healthcare). Therefore, rhuSeprase was immobilized onto a CM5 chip via NHS/EDC mediated coupling as described by manufacturer at 10 μl/min for 420 sec. […] Kd values were calculated using the provided software.
(§5) As a next step a more detailed analysis of binding kinetic was performed using surface plasmon resonance technology (SPR). Therefore, recombinant human Seprase was immobilized on a CMS chip (GE Healthcare) with an amino reactive surface. […] Association and dissociation data was fitted and corresponding dissociation constant and kinetic values (Kon, Koff and Kd) was calculated using the provided software of the system (FIGS. 4A and B).

The target is the same in assay [4]. The assay is described as follows: SPR (Biacore T100), recombinant human Seprase immobilized, 37-3000 nM MC-FA-010; Seprase on the chip; monovalent MC-FA-010, 37-3000 nM, Biacore T100. The method, then:
as §4, §5

Assay [5] shares this target. In words: SPR (Biacore T-100), rhuSeprase immobilized on CM5, multi cycle kinetics, 1:1 fit. Here is the method:
as §1, §2

Assay [6] shares this target. The assay is described as follows: SPR (Biacore T-100), rhuSeprase immobilized on CM5, single cycle kinetics, 1:1 fit. Here is the method: as §1, §2
The target is the same in assay [7]. The assay is described as follows: SPR (Biacore T-100). Here is the method: as §1, §2
In assay [8] the target is T2, human Seprase, full length, on cells (human, UniProt Q12884 1-760).
T2 construct: whole, on cells; also called CHO-K1-Seprase; CHO-K1-huSeprase
T2 sequence (looked up): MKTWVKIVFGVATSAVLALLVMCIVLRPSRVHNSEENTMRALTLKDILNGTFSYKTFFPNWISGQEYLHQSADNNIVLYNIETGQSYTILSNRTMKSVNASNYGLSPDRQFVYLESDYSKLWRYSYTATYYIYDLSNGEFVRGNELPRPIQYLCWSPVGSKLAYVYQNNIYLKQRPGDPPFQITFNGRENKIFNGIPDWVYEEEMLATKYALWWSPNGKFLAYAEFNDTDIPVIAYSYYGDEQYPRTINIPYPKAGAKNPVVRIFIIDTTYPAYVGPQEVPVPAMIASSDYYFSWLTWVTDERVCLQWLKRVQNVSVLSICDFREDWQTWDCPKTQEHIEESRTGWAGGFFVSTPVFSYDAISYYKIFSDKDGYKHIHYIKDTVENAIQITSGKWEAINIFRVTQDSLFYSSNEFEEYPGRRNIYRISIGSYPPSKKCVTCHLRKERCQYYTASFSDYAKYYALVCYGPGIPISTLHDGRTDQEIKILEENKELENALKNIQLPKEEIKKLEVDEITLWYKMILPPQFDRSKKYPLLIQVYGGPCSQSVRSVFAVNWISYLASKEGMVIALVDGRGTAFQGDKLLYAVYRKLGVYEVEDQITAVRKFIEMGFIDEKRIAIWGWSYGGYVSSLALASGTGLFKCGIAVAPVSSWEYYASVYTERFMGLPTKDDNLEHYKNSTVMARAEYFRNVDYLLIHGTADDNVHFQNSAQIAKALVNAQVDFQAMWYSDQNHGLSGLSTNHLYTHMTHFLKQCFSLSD
In words: FACS-based competition on CHO-K1-huSeprase cells, competitor Trx-MC-FA-012 detected with anti-H6-PE.

Assay [9] addresses T1, recombinant soluble human Seprase …. The assay is described as follows: direct ELISA on coated rhuSeprase, Trx fusion detected with anti-S-tag-HRP; apparent KD from one site saturation fit; Error 7,6; R2 0,9962. Here is the method:
as §3
For orientation: An ELISA detects its analyte on a solid surface through an enzyme-linked reagent.

Assay [10] has the same target. The assay is described as follows: direct ELISA on coated rhuSeprase; binding relative to the parental Trx-MC-FA-010. The method, then: as §3
Assay [11] has the same target. The assay is described as follows: direct ELISA on coated rhuSeprase, Trx fusion detected with anti-S-tag-HRP; apparent KD from one site saturation fit; Error 64,43; R2 0,9863. Here is the method: as §3
Assay [12] shares this target. The assay is described as follows: direct ELISA on coated rhuSeprase, Trx fusion detected with anti-S-tag-HRP; apparent KD from one site saturation fit; Error 3,63; R2 0,9974. Here is the method:
as §3

Assay [13] has the same target. The assay is described as follows: direct ELISA on coated rhuSeprase, Trx fusion detected with anti-S-tag-HRP; apparent KD from one site saturation fit; Error 11,54; R2 0,9969. The method, then:
as §3

The term IC50 denotes the concentration that gives 50% inhibition. The koff is the rate constant with which the complex falls apart. The kon is the second-order rate constant of association.

Positions of bridges follow the written chain, without caps; N, C: chain ends. No end group written: not given here.

B1: MC-FA-010 (designed binder)
chain: GKCPYSNWTPGRGPDCRRDSDCPGRCICRGNGYCG
modifications: disulfide (positions not given here)
notes: also called soluble monovalent MC-FA-010; solitary MC-FA-010 miniprotein
For the molecule B1, the Kd was 106 nM in assay [1], 562 nM in assay [3], roughly 560 nM in assay [4] and 149 nM in assay [5]. In addition, in assay [2], the IC50 is roughly 20 nM. Moreover, the koff came out at 0.151 s⁻¹ in [3] and 0.201 s⁻¹ in assay [5]. In addition, the values for the kon in [3] and in [5] were 268000 M⁻¹ s⁻¹ and 1.53e+06 M⁻¹ s⁻¹, respectively.

B2: DOTA-(MC-FA-012)3 (designed binder)
chain 1: GACPYSNWTPGRGPDCRRDSDCPGRCICRGNGYCG
chain 2: GACPYSNWTPGRGPDCRRDSDCPGRCICRGNGYCG
chain 3: GACPYSNWTPGRGPDCRRDSDCPGRCICRGNGYCG
modifications: each of chains 1-3: N-terminal aminooxy group oxime-ligated to an oxidised serine of the anchor; three disulfides (cystine knot) per chain; anchor carries an N-terminal DOTA chelator
notes: Purchased from Pepscan; about 13000 Da; also called DOTA conjugated trimerized MC-FA-012; MC-FA-012 trimer; not shown: the anchor scaffold (N-terminal DOTA, three Lys-Ser units separated by GSGS linkers)
Take B2: in [1], the Kd came to 0.249 nM. In assay [6], the Kd was 0.0124 nM and the kon came to 2.11e+07 M⁻¹ s⁻¹. The “times slower offrate compared to MC-FA-012” value in [7] was roughly 530 fold. For the same molecule, the IC50 in assay [8] was 43.3 nM.

B3: Trx-MC-FA-019 (designed binder)
chain: GKCPYSNWTAGRGPDCRRDSDCPGRCICRGNGYCG
modifications: disulfide 16-28, 22-34, 3-26; also: N-terminal Trx-His6-S-tag fusion carrier, not in chain
notes: the position follows from the order of the rows; also called alanine scan variant P10A of MC-FA-010, Trx fusion; not shown: thioredoxin-A, His6 tag, S-tag and linkers of the pET-32-LibEx fusion (N-terminal carrier)
With B3, in assay [9], the Kd amounted to 78.7 nM. The “Relative Bindung im Vergleich zu Trx-MC-FA-010 [%]” value in assay [10] was found to be 19.3%.

B4: Trx-MC-FA-0112 (designed binder)
chain: GKCPYSNWTPGRAPDCRRDSDCPGRCICRGNGYCG
modifications: disulfide 16-28, 22-34, 3-26; also: N-terminal Trx-His6-S-tag fusion carrier, not in chain
notes: the position follows from the order of the rows; also called alanine scan variant G13A of MC-FA-010, Trx fusion; not shown: Thioredoxin-A, His-tag (H6), S-tag and linker of the pET-32-LibEx fusion, N-terminal of the miniprotein
As to B4, the “Relative Bindung im Vergleich zu Trx-MC-FA-010 [%]” value in [10] amounted to 6.98%. Further, the Kd in [11] was found to be 217 nM.

B5: Trx-MC-FA-018 (designed binder)
chain: GKCPYSNWAPGRGPDCRRDSDCPGRCICRGNGYCG
modifications: disulfide 16-28, 22-34, 3-26; also: N-terminal Trx-His6-S-tag fusion carrier, not in chain
notes: the position follows from the order of the rows; also called alanine scan variant T9A of MC-FA-010, Trx fusion; not shown: thioredoxin-A, His6 tag, S-tag and linkers of the pET-32-LibEx fusion (N-terminal carrier)
In the case of B5, the Kd in [12] is 50.6 nM. The “Relative Bindung im Vergleich zu Trx-MC-FA-010 [%]” value in [10] is 29.9%.

B6: Trx-MC-FA-016 (designed binder)
chain: GKCPYSAWTPGRGPDCRRDSDCPGRCICRGNGYCG
modifications: disulfide (positions not given here); also: N-terminal thioredoxin-A, His6, S-tag and linker carrier, letters not given here
notes: the position follows from the order of the rows; also called alanine scan variant N7A of MC-FA-010, Trx fusion; not shown: thioredoxin-A, His6 tag, S-tag and linkers of the pET-32-LibEx fusion (N-terminal carrier)
For B6, the Kd in assay [13] is 113 nM. In assay [10], the “Relative Bindung im Vergleich zu Trx-MC-FA-010 [%]” value came to 13.4%.
